Patent publication US20260250338A1
Values belong to the substance of their own block, whether it stands above or below them.

Experiments:
[1] = molecular target: full length human CD16b stably expressed on transduced WT Jurkat cells (human) (UniProt O75015); assay: flow cytometry on CD16b-transduced WT Jurkat cells stained with anti-CD16 (axis printed VL1-A :: CD16-eFluor 450-A)
[2] = molecular target: HER2 on MDA-MB-231 cells (human) (UniProt P04626); assay: flow cytometry on MDA-MB-231 cells, anti-HER2 PerCP/Cy5.5 at 1:20
[3] = molecular target: HER2 on JIMT-1 cells (human) (UniProt P04626); assay: flow cytometry on JIMT-1 cells, anti-HER2 PerCP/Cy5.5 at 1:20
[4] = molecular target: HER2 on MDA-MB-175 cells (human) (UniProt P04626); assay: flow cytometry on MDA-MB-175 cells, anti-HER2 PerCP/Cy5.5 at 1:20
[5] = molecular target: HER2 on HT29 cells (human) (UniProt P04626); assay: flow cytometry on HT29 cells, anti-HER2 PerCP/Cy5.5 at 1:20
[6] = molecular target: HER2 on SKOV3 cells (human) (UniProt P04626); assay: flow cytometry on SKOV3 cells, anti-HER2 PerCP/Cy5.5 at 1:20
[7] = molecular target: HER2 on HT29 cells (human) (UniProt P04626); assay: flow cytometry on HT29 cells, isotype ctrl PerCP/Cy5.5
[8] = molecular target: HER2 on JIMT-1 cells (human) (UniProt P04626); assay: flow cytometry on JIMT-1 cells, isotype ctrl PerCP/Cy5.5
[9] = molecular target: HER2 on SKOV3 cells (human) (UniProt P04626); assay: flow cytometry on SKOV3 cells, isotype ctrl PerCP/Cy5.5
[10] = molecular target: HER2 on MDA-MB-231 cells (human) (UniProt P04626); assay: flow cytometry on MDA-MB-231 cells, isotype ctrl PerCP/Cy5.5
[11] = molecular target: HER2 on MDA-MB-175 cells (human) (UniProt P04626); assay: flow cytometry on MDA-MB-175 cells, isotype ctrl PerCP/Cy5.5

full length human CD16b stably expressed on transduced WT Jurkat cells (human), sequence (O75015 17-200): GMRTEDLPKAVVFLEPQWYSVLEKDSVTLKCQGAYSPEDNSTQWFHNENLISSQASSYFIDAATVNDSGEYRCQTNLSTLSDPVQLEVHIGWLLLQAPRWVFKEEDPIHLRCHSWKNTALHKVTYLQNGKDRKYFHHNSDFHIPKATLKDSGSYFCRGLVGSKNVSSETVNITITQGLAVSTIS

- CD16 gate (percent of cells) [1]: 100
Substance: CD16-BV421 (BV421 mouse anti-human CD16 clone 3G8, BD Biosciences) (antibody)

- Median : BL3-A [2]: 1240
- Median : BL3-A [3]: 10300
- Median : BL3-A [4]: 6860
- Median : BL3-A [5]: 2230
- Median : BL3-A [6]: 25400
Substance: HER2 (Anti-Her2 PerCP/Cy5.5, BioLegend #324416) (antibody)

- Median : BL3-A [7]: 361
- Median : BL3-A [8]: 306
- Median : BL3-A [9]: 491
- Median : BL3-A [10]: 520
- Median : BL3-A [11]: 331
Substance: iso ctrl (Isotype ctrl PerCP/Cy5.5 antibody)
